Laboratory results from article PMC4810302 (The Journal of Cell Biology, 2016).
Where no end group is shown, it is not given here.

Target: His-G3BP1 (human, UniProt Q13283 1-466)
Assay: pull-down

Sequence of His-G3BP1 (Q13283 whole entry): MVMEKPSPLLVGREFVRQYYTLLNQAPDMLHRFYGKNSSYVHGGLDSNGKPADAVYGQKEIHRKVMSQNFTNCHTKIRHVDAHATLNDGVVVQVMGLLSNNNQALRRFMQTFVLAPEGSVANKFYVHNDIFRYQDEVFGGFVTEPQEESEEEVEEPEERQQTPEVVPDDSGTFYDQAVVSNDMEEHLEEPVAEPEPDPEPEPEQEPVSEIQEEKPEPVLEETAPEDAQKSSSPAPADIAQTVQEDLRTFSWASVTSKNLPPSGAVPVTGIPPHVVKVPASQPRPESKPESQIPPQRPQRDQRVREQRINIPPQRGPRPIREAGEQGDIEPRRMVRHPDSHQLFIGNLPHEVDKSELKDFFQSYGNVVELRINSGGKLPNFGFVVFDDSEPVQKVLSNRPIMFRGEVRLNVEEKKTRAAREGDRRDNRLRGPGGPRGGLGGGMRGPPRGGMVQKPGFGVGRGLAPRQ

YIFGDFSPDEFNQFFVTP-biotin [USP10_(8–25)WT peptide]
binding result: binds
